According to patent US20050223428A1 (published 2005):

Target: T1, ERCAT-MBP (ERECTA kinase domain fused to maltose binding protein, kinase-active) (Arabidopsis, UniProt Q42371 611-976)
T1 construct: Expressed in E. coli from pMAL-c2 and purified on amylose resin; dot-blotted on nitrocellulose
T1 sequence: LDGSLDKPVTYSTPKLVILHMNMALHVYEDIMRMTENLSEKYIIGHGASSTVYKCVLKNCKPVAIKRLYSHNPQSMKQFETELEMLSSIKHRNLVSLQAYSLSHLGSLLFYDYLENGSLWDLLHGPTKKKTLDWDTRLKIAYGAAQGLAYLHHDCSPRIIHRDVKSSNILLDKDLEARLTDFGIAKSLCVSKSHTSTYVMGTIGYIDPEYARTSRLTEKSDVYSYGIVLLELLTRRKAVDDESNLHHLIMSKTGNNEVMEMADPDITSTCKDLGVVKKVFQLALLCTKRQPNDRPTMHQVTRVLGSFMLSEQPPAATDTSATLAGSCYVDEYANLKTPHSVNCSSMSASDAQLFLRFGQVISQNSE
Experiment: far-western dot blot with 32P-labelled GST-KID
Source text: Far-Western Analysis of the ERECTA-KAPP Interaction: For protein-protein interaction (far-western) blot analysis, the kinase domains of ERECTA and RLK5 were expressed as MBP fusions. The ERECTA kinase domain (corresponding to amino acids 611 to 977) was amplified from cDNA using the primers ERK4 (5′ […] 3′, SEQ ID NO:34) and ER3rc (5′ […] 3′, SEQ ID NO:35). The amplified fragment was digested with EcoRI and BamHI and introduced into pSP73-delta-AatII to generate pKUT503. […] The first round of PCR was performed with the primer pairs ERK4 and ERK13/K676E (5′ […] 3′, SEQ ID NO:36) and ERKI5/K676E (5′ […] 3′, SEQ ID NO:37) and ERCodeC3 (5′ […] 3′, SEQ ID NO:38). In the next round, products from both reactions were mixed and amplified with ERK4 and ERCodeC3. The amplified fragment was digested with EcoRI and BamHI and introduced into the plasmid pSP73-delta-AatII to generate pKUT536. The EcoRI-SalI fragments of both pKUT503 and pKUT536 were cloned into pMAL-c2 (New England Biolabs). The plasmids RLK5CAT-MBP, RLK5CAT(K711E)MBP, and GST-KID 134 were generous gifts from John Walker (University of Missouri, Columbia). […] Protein concentrations were determined with Bio-Rad Protein Assay Solution. […]

B1: GST-KID (kinase interaction domain of Kinase-Associated Protein Phosphatase, KAPP, fused to glutathione S-transferase) (other, UniProt P46014 180-313, looked up)
chain: SWLFLEVIAGPAIGLQHAVNSTSSSKLPVKLGRVSPSDLALKDSEVSGKHAQITWNSTKFKWELVDMGSLNGTLVNSHSISHPDLGSRKWGNPVELASDDIITLGTTTKVYVRISSQNEFQIPFKIGVASDPMA
modifications: labeled with 32P
notes: Plasmid was a gift (John Walker); expressed in E. coli, purified on glutathione-Sepharose, 32P-labelled and used as the probe in the far-western dot blot; also called KAPP KID; radiolabeled KID protein; not shown: glutathione S-transferase (GST) fusion partner
- binding result: no binding (tested: One milligram blotted)
